{
  "source": "the DeepSol protein solubility set",
  "data": [
    {"assay": "soluble on expression in E. coli; label from the status in PepcDB or PDB records", "values": [
      {"sequence": "MGHHHHHHSHMKRDELMELIFLGTSAGVPTRTRNVTAILLNLQHPTQSGLWLFDCGEGTQHQLLHTAFNPGKLDKIFISHLHGDHLFGLPGLLCSRSMSGIIQPLTIYGPQGIREFVETALRISGSWTDYPLEIVEIGAGEILDDGLRKVTAYPLEHPLECYGYRIEEHDKPGALNAQALKAAGVPPGPLFQELKAGKTITLEDGRQINGADYLAAPVPGKALAIFGDTGPCDAALDLAKGVDVMVHEATLDITMEAKANSRGHSSTRQAATLAREAGVGKLIITHVSSRYDDKGCQHLLRECRSIFPATELANDFTVFNV", "soluble on expression in E. coli": "not soluble"},
      {"sequence": "MVYLYKKGVGMNEQSQAKSPEALRAMVAGTLANFQHPTLKHNLTTLKALHHVAWMDDTLHVELVMPFVWHSAFEELKEQCSAELLRITGAKAIDWKLSHNIATLKRVKNQPGINGVKNIIAVSSGKGGVGKSSTAVNLALALAAEGAKVGILDADIYGPSIPTMLGAENQRPTSPDGTHMAPIMSHGLATNSIGYLVTDDNAMVWRGPMASKALMQMLQETLWPDLDYLVLDMPPGTGDIQLTLAQNIPVTGAVVVTTPQDIALIDAKKGIVMFEKVEVPVLGIVENMSVHICSNCGHHEPIFGTGGAEKLAEKYHTQLLGQMPLHISLREDLDKGTPTVISRPESEFTAIYRQLADRVAAQLYWQGEVIPGEISFRAVLEHHHHHH", "soluble on expression in E. coli": "not soluble"},
      {"sequence": "MGSDKIHHHHHHMRVEEAKYLAKKIMMAGEIPLLVGHFGVGKTDIARDIARETERKLIILVLSQMEPGDLIGLPARTEEKTVFLKPDWWPESGDTILFLDEINRAHRSVRNAIMQLLVDRRIHNHILPEGTWIMAAMNPPEEEYDQADLITDPAFISRFFILEVNPDVSEWLEWAEKNNVSKEVRDFIRDYPEFLFSERSLSLRTSLKPSPRSWYKLSNVLKTLTDDEKEKYGYVIAAGIVGPEAAKAFYDSFFQRVKIPSVESVLFDGKIENLEDIHAANTLVLRIVDFLSKVDVRTLERHLDDVSKNLVRLSEIMPKESFYGVLRFLVDEAQKEGEKSWIFDKILEKMLEREDMRKMVNEL", "soluble on expression in E. coli": "not soluble"},
      {"sequence": "MAHHHHHHMQRPTTARYRGRRESSAASRKLAKKPHSLMDELPPCPPSPYKWKQHRQHDGHHISVTAAFIRGRRNMRVGAAAISAIAASPFPVDGATKAAKSSPAFPMRALVVAGTHDSDAVEGNNDDEAIFELFFREAQLHYHISAEENMRNHLLAGEEVAFTNLMIEALQARAELLAGDEAAELVIRDAQKRAQERQAMMKEIEKTVALRLHDERMAQLLAMEFEALLPAHGAGCERILREEAADLGEVFRWHKENRPLGAGCFIEAPVEDSRLTDARRGTGAAKFLESRLALAKGSRRASCARSSRVYLAQLLQKGTSSRCSAAALGPLAVAAGEAPASLLDGTLPVMDEALFQEEGRARLQAAKDQRYLALRGLRAVSDIRQAAAAAREKVLAEEAMCWMQIARLEVDGIYAAQEATRERKKREASADAATTHRAAQKKEVKERLLRQRGRPVPEPDNSAGGDARVQPRISGKSTEEGAQPPKDQAAITEAGALEQPSPRSSSSTVPDNSPLCGALAEGASTTAEANVDAVDELAYLRFVTGEITDPDACKQLSALVSSEVDEEVEKAV", "soluble on expression in E. coli": "soluble"},
      {"sequence": "MKLIWSEESWDDYLYWQETDKRIVKKINEIIKDTRRTPFEGKGKPEPLKHNLSGFWSRRITEEHRLVYAVTDDSLLIAACRYHYLEHHHHHH", "soluble on expression in E. coli": "soluble"},
      {"sequence": "MAHHHHHHMTDVAEGHQSYANAFISEGDRTSAVRYLDLFLRLYEEYCDVAEVEANSRVLQAATVMQSNSHAPDLLSYVVSAAALGIGGTRALAPALASLPLKVLNLSECYLGDAGLRVLAETLSASSHSTGGLRVLELRGISASDGSSVALLVTALRSLQLLDVSSNRFGTRPPGFALLCAAMGYHPALREVHIADNMVSGCCESCVGAIAEWLVKASRACMLQHVDLRFNTLGLYRRGLYNTVVDGKEVQCTLYGFYPLVDALLLNNSIEVLEVGNNGFPPGVLDAIEAKLAVNKRTKKALQEYYTNHIDR", "soluble on expression in E. coli": "not soluble"},
      {"sequence": "MKVAVTGRPGVGKTTLCLKVHESLKDKMTVGGFITKEVRRDGVRVGFKLVDLSSGNEEWLARVGEGKARVGKYAVNVEGLEEFLDSVRTDADLVIIDEVGPMELKSRKFVRFVENLMGRERLLFTIHLKSRHRLLDRIRREFKVYVIDESNRNRIAEEITRILEGLEHHHHHH", "soluble on expression in E. coli": "soluble"},
      {"sequence": "MPVAEQPYHHGSLRRVLLARAESTLEKDGVDGLSLRQLAREAGVSHAAPSKHFRDRQALLDALAESGFLRLTAALERAVEEAESHARARFAALAGAYVSFALAHRELLALMYGNKHAPGAASQVVEAGHASMDLTVRIVTEAQAAGDIGPGDASRIALVAFATFHGIATLAAGGMLDGAPVDEVVTAASDTFWRGLAQA", "soluble on expression in E. coli": "soluble"},
      {"sequence": "RCFRLEQTQKDARVVSVHAAMSGRSTIGEQQGHSISWRRRLSRANTWPSAAKAQAYITNVATPALTQVAEELCRKGINARLVTTKTQAVEGLDLIVEMGSEQNFRYQLFPVCNPVPQFTRKANASEKETYYRLEVCDLTGSLGYDIYGYTQEQLIDNVLDLYERHLEFLHMHSDLPGSSDLSDGATPPLFS", "soluble on expression in E. coli": "not soluble"},
      {"sequence": "MDNNPIENFMRTTMENIKGMIDVNTIVGEPIKNTDGSLIIPISKVSFGFASGGSEFKSQEDSQENKKIYPFGGGAGAGVSLKPIAFLVIKDDSVRLLPLNAENTYEKVVDMIPQLIEMCKGFSHKSKKEKCCNDDKKKDSNSTNGNTDNANQNSQQQSLEHHHHHH", "soluble on expression in E. coli": "soluble"},
      {"sequence": "MYNLKNIYASITLYPHEINLVVSDNNNQFHVLYENSIANDELYTHAGITNKAKFKVVLNQLINNANDYLGFKLEKVIVVLAELVDDLEINRFKTDVFFTGYDFNHQDMLSSEKNRFLLKNRHINPNEVLDLVALNYRDLTTDKISKNFKYNCSYRANVIYYTTKNSLVKELKPFLKRNIIVKIDKIVTHHMVLAHSIKQINKNNLFVYLGEHTTDLMLFMDNALVDLVSEPFGRVNFLESDNDSENKALLEFLVDSTARIGDSGSIGMAYTDGSTYKEIRAVTIDDLIQSVNEKTKYLIDFINTNTEIFFQKYGFLPSTLLFYTKSKQLLNNFQLNQNLLSNHFKTVTIFKNEVQFVSRKYLLNCQTIALSWRQDQINVNPTSFALPFYSDKIEKQFKKSFLMLKVHTHINKLVQKLIK", "soluble on expression in E. coli": "soluble"},
      {"sequence": "MDPLLTVLKERMRACQRRVSDRPRRQVVAIEWIDPPMASGNWIPELIALAGGENMLGTAGKHSPYIEWSTLLAIDPEVILVMPCGFDLERTRQELDQALQTYPQWQQLRALQTGQLYILDGNAYFNRPGPRLVDSLEILVEILHPCPEPKFHGVGWRPYVGPSMAKMSDEGLEHHHHHH", "soluble on expression in E. coli": "not soluble"},
      {"sequence": "MDLTELFAFLSIPSVSTDPARREDVRRAALWLEERLKARGFRTELHETPLHPILYAERFVDEKAPTVLVYGHYDVQPPDPLELWESPPFSPVVREGRIYARGAFDDKGQLFAHVLAAEEAPVNLKFLVEGEEEIGSPHLPPFVRANREKLRADVVLVSDGAMFAPHTPTLTYGLRGLCYLEVRLRGARRDLHSGAFGGVAPNPIQALGWLLARLKDEGTGRVLIPGFYERVRPVPEEEKALWPSLDEEALKRELGVEILPGEEGYAPLERLWARPTLDPNGIWGGYQGEGSKTVIPAEAGMKLSMRLVPDQDPEEVADQAEAYLKAVCPPGYALEVRRLHGGRPVLTDPFSPPMRLMARALEEVWGRPPVYTREGGTIPVVAELKETLGAPIVLLGLGLPDDNLHAPNEKLDLVNLEKGVEVIRRFHRLLAG", "soluble on expression in E. coli": "soluble"},
      {"sequence": "MTKIFAKEWNMSDPGRALASFFATLPTRPQLLALGEPNHTDDAFPAQRNRLFRTLVEEYGFRSIALESDILAGQRVNAYVTGGADDLEEVMRTGFSHDFGRRAANRELVGWLRDFNAGRSADEQVHFYGFDPPMENLWAASPRASLLTLHALLARQVPALPVSAATIERLCGDDARWANPAAGMDAAQSIGHSDEARQLRVLTDDLLHRLETGAPGLAEQPDFWEAQLAARTAAGLLRYHAVMADPAPDRIARMLAARDLLMAGHLLAIAEREQRCGPTLVFAHNLHLQRPLSRMKMGAQKIGAQTLDWWGAGAHVSRRLGERYAFIASYPGAAEETFLVPSSELTEAAATQLSVRDDGQPYSFPFKLSDLPFLNGALLVGQFLEHHHHHH", "soluble on expression in E. coli": "soluble"},
      {"sequence": "GLDNELSLVDGQDRTLTVQQWDTFLNGVFPLDRNRLTREWFHSGRAKYIVAGPGADEFEGTLELGYQIGGPGIQEVATFSVDVSGAEGGVAVSNAHGTVTGAAGGVLLRPFARLIASTGDSVTTYGEPWNMN", "soluble on expression in E. coli": "soluble"},
      {"sequence": "MGSDKIHHHHHHMNTLEIAKEVFEKEAQAILDLATNLDENFNQAVNLMLNTKGRCIVSGMGKSGHIGAKIAATLASTGTPSFFIHPGEALHGDLGMLTSEDVLIAISNSGETEEILKIIPAIKKREIPLIVMCGKKNSTLVKQGDIFLNIAVEKEACPLQLAPMSSTTATLVMGDALAAALMKVRNFKPDDFALFHPGGSLGRKLLTKVKDLMVSSNLPIVHPDTEFNDLVDVMTSGKLGLCVVLENEKLVGIITDGDLRRALKASDKPRFDFKAKEIMSINPKVVDADAMASEAEGIMLKHKIKEIIVGKEEKVVGIIQLYAIGNV", "soluble on expression in E. coli": "not soluble"},
      {"sequence": "MAHHHHHHMMYSRLFHESLGIVIISPSRSSASPALVIADAFYSAMRLQVMLAMPFVQPRFASIFRLLLRAVPLLPPFMATFTFRRCTSDLSRRSAMRCFTARLQLLTFETLLCGSHGVLPPPARLAAACARAKEEFALQCSTSAPPPTKLTTAVVATHLLHNNLRDAAAVLASHPCQQQVLEEVRDYVRQHPGVFSVSTLTGMLEEARCVSPAAVATFLRAAVDEFLRGSSAASTVGDEATAWDAQRENLRSLVLRHIRFYPACVSFLLGSLCAVSRGCAGDREDVIEVMQIAMRERSMNPRDFGGVLDVVWKSREPRRVAMMWAWMQHTSACWDVRAASIAIMAFSELHQMDEAVACIQRLAEADGDPTIDAQVAFVRFLGVRTPSLLRYAAQLVLHWHPSGERLWRGEPQAVGMELVKICCACGERKWAVEMLEQMVATNASVPAELEAFMLRPGAAALGEHYSASVAASKTLQELFIDVPLRLPNLGEQPALVGLLLSLGMVTNRLPEVYDALEKASLTPANFQDALDCFVTGSVVKAASPVAVLACVREAGVRTGHKVPKEMESWLQLATEM", "soluble on expression in E. coli": "not soluble"},
      {"sequence": "MAHHHHHHMPMILNEGWNIIQINLQEYTEKAFRTKYMETMDIQINASIRIRCIYFCDKLYNNDELKDEYKIFSKKKEKIKYTPPQCLNKPLKKMTIKSIITEGVSKGGENLPTEVEANKATTENEILEDSSTSGNSKKTDVEPTSQKNLQSIDMTEGIELYEESTDDPFFDEKNDGEGTPLAQVIGGEELLVGGEESTEVANNMTMDLTENTVTGTMNGPMKDQQDAEEAEHLAHIKTLEMDDTNVLYEDVNYETYNNDDH", "soluble on expression in E. coli": "soluble"},
      {"sequence": "MDLISGEADPSESRAAERPGTAPLQGLVTFNRLELNRILNLYGRMVAAGEWRDYAIDFLKDTAVFSIFRRASEVPIYRIVKDPRLARKQGAYSVIGASGQILRRGHELERVLLVIDRKLALV", "soluble on expression in E. coli": "not soluble"},
      {"sequence": "ISEFDSGETMREEQPHLATTWAARGWVEEEGIGSATLGRLVRAWPRRAAVVNKADILDEWADYDTLVPDYPLEIVPFAEHPLFLAAEPHQRQRVLTGMWIGYNERVIATEQLIAEPAFDLVMHGVFPGSDDPLIRKSVQQAIVDESFHTYMHMLAIDRTRELRKISERPPQPELVTYRRLRRVLADMPEQWERDIAVLVWGAVAETCINALLALLARDATIQPMHSLITTLHLRDETAHGSIVVEVVRELYARMNEQQRRALVRCLPIALEAFAEQDLSALLLELNAAGIRGAEEIVGDLRSTAGGTRLVRDFSGARKMVEQLGLDDAVDFDFPERPDWSPHTPR", "soluble on expression in E. coli": "soluble"},
      {"sequence": "MASQTQGIQQLLAAEKRAAEKINEARKRKLQRTKQAKQEAQAEVEKYKQQREAEFKAFEQQYLGTKEDIESKIRRDTEDQISGMKQSVAGNKQAVIVRLLQLVCDIKPELHHNLTLQKKLHGQFAA", "soluble on expression in E. coli": "not soluble"}
    ]}
  ]
}
